Measurements: patent publication US20260159585A1 (SHANGHAI HENLIUS BIOTECH, published 2026)

Assays:
[1] = molecular target: T1, human CD47 expressed on cells (human, UniProt Q08722 19-323); assay: FACS, whole cell binding to human primary red blood cells, FITC anti-human Fc; upper panel
T1 construct: whole, on cells; One molecule for all cell types; also called CD47 on Jurkat cells; CD47 on human red blood cells (RBCs)

[2] = molecular target: T2, hCD47-His antigen (human, UniProt Q08722 19-139, limits assumed); assay: ELISA on coated hCD47-His, HRP anti-human Fc, OD450; plate2
T2 construct: also called human CD47; not shown: His tag

[3] = molecular target: T2, hCD47-His antigen; assay: ELISA on coated hCD47-His, HRP anti-human Fc, OD450; plate3
[4] = molecular target: T2, hCD47-His antigen; assay: ELISA on coated hCD47-His, HRP anti-human Fc, OD450; plate4
[5] = molecular target: T1, human CD47 expressed on cells; assay: FACS, whole cell binding to human primary red blood cells, FITC anti-human Fc; lower panel
[6] = molecular target: T2, hCD47-His antigen; assay: ELISA on coated hCD47-His, HRP anti-human Fc, OD450; plate1

B1: M1 #21 (antibody, V domains shown)
VH: QVQLQQWGAGLLKPSETLSLTCAVYGGSFSGYYWSWIRQPPGKGLEWIGEINQSGSTNYNPSLKSRVTISVDTSKNQFSLRLSSVTAADTAMYYCARFTGRPYYGMDVWGQGTTVTVSS
VL: SYELTQPPSVSATPGQRVTISCSGSESNIGSHKVKWYQQFAGAAPRLLIHGNDQRFSGVPDRFSGSKSGTSASLAISGLQSEDEADYYCAAWDDSLYGRVFGGGTKLTVL
EC50 (read off the curve) [1]: ~0.2 nM | EC50 (read off the curve) [2]: ~0.08 nM | EC50 (read off the curve) [3]: ~0.1 nM | EC50 (read off the curve) [4]: ~0.07 nM | EC50 (read off the curve) [5]: ~0.3 nM | EC50 (read off the curve) [6]: ~0.1 nM
